Where two headings read alike, the source gives them in different places.
T1: BCL11B protein, MBP-tag-fused recombinant (pETMBP.3C-Bcl11b) (mouse, UniProt Q99PV8 1-884)
T1 chain: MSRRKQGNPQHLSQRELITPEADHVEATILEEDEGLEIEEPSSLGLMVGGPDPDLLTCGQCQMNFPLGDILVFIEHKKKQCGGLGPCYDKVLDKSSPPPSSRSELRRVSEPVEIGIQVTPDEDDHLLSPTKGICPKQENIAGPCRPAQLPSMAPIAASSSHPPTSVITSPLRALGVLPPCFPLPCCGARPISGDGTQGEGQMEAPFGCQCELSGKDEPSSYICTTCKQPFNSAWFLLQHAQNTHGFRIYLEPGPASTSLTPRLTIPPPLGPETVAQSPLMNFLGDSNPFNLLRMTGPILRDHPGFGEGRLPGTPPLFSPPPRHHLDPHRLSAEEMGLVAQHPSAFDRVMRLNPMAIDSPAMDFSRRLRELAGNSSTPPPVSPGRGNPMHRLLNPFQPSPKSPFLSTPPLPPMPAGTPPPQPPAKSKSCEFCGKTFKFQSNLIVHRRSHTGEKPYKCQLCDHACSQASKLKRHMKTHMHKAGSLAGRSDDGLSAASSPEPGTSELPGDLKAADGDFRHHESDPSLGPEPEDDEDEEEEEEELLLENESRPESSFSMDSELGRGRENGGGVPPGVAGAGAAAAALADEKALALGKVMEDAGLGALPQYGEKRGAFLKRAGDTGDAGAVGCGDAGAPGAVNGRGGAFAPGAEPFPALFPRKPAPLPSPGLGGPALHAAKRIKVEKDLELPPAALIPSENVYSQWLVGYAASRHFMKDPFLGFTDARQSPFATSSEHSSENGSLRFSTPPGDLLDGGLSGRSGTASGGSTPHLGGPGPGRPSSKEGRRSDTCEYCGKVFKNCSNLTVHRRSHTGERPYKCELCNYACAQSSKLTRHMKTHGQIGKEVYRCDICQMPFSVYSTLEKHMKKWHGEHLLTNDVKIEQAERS


Experiments:
[1] = biological target: T1, BCL11B protein, MBP-tag-fused …; assay: SPR
[2] = biological target: T1, BCL11B protein, MBP-tag-fused …; assay: SPR

Kd [1] | Kd [2] | Binder
0.609 nM | – | β-catenin, MBP-tag-fused recombinant (pETMBP.3C-β-catenin) (natural protein) MATQADLMELDMAMEPDRKAAVSHWQQQSYLDSGIHSGATTTAPSLSGKGNPEEEDVDTSQVLYEWEQGFSQSFTQEQVADIDGQYAMTRAQRVRAAMFPETLDEGMQIPSTQFDAAHPTNVQRLAEPSQMLKHAVVNLINYQDDAELATRAIPELTKLLNDEDQVVVNKAAVMVHQLSKKEASRHAIMRSPQMVSAIVRTMQNTNDVETARCTAGTLHNLSHHREGLLAIFKSGGIPALVKMLGSPVDSVLFYAITTLHNLLLHQEGAKMAVRLAGGLQKMVALLNKTNVKFLAITTDCLQILAYGNQESKLIILASGGPQALVNIMRTYTYEKLLWTTSRVLKVLSVCSSNKPAIVEAGGMQALGLHLTDPSQRLVQNCLWTLRNLSDAATKQEGMEGLLGTLVQLLGSDDINVVTCAAGILSNLTCNNYKNKMMVCQVGGIEALVRTVLRAGDREDITEPAICALRHLTSRHQEAEMAQNAVRLHYGLPVVVKLLHPPSHWPLIKATVGLIRNLALCPANHAPLREQGAIPRLVQLLVRAHQDTQRRTSMGGTQQQFVEGVRMEEIVEGCTGALHILARDVHNRIVIRGLNTIPLFVQLLYSPIENIQRVAAGVLCELAQDKEAAEAIEAEGATAPLTELLHSRNEGVATYAAAVLFRMSEDKPQDYKKRLSVELTSSLFRTEPMAWNETADLGLDIGAQGEALGYRQDDPSYRSFHSGGYGQDALGMDPMMEHEMGGHHPGADYPVDGLPDLGHAQDLMDGLPPGDSNQLAWFDTDL
– | 2.42 nM | MBD3, MBP-tag-fused recombinant (pETMBP.3C-Mbd3) (natural protein) MERKRWECPALPQGWEREEVPRRSGLSAGHRDVFYYSPSGKKFRSKPQLARYLGGSMDLSTFDFRTGKMLMNKMNKSRQRVRYDSSNQVKGKPDLNTALPVRQTASIFKQPVTKITNHPSNKVKSDPQKAVDQPRQLFWEKKLSGLSAFDIAEELVRTMDLPKGLQGVGPGCTDETLLSAIASALHTSTLPITGQLSAAVEKNPGVWLNTAQPLCKAFMVTDDDIRKQEELVQQVRKRLEEALMADMLAHVEELARDGEAPLDKACAEEEEEEEEEEEEPEPERV

— article PMC11612440 (2024)
